± gives the uncertainty stated by the source.
Assay: amyloid nucleation score (Sup35N fusion, yeast selection) (log enrichment); library NNK3; higher = more nucleation; inactive = no reads after selection
Procedure, shortened: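 On medium lacking adenine and uracil, psi-negative yeast expressing peptides of 20 random codons fused to Sup35N were grown 7 days at 30°C after a 24-hour induction with 100 μM copper sulfate. Illumina sequencing of input and output plasmid inserts gave the reads, and sequences under 100 input reads were excluded. The nucleation score is the DiMSum log enrichment of output over input reads, centred on the mode score of non-aggregating sequences.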

Row | Substance | amyloid nucleation score
1 | IYLECIYNCFYVYKIMLHRV | inactive
2 | LSKVVLLVFKGTP | inactive
3 | GFVMMFNR | inactive
4 | TYLHDLYT | inactive
5 | IGGDSRHI | inactive
6 | STWTWMPHKERHITLSKEFW | inactive
7 | ELRLHNFTFRLVASFWLLRV | inactive
8 | WCLSCVLTNIRVRIPNRTVV | inactive
9 | YSSPRSVNSYGLDYVYRTA | inactive
10 | CRSGCAVYS | inactive
11 | NIFWP | inactive
12 | HDAVLI | inactive
13 | SDRRLK | inactive
14 | GGFCKWRKCGVYKMTGHCPE | inactive
15 | TMLVFGIVNTLVVDNLRSSI | 2.01 ± 0.094
16 | MMFVGYLSCFSS | 2.38 ± 0.059
17 | KRFDMMHIQTYEMGWSPSVR | inactive
18 | LVFIWAKTHRHQLFVTEAEL | inactive
19 | CSVVWIMV | -0.852 ± 0.8
20 | KVIDGVDAMWCMKVFWV | inactive
21 | VWSVHSHTQPMHSWSVRSAG | inactive
22 | GKPWCNYSDYFYCTLLVDCK | -0.246 ± 0.82
23 | LFNLL | inactive
24 | WTNIRFAF | inactive

Row | Substance | amyloid nucleation score
25 | NRILGGNLYVNVIDRIGGMV | inactive
26 | LQSGDRIVTDSYVRAYTMHV | inactive
27 | ICCKYGDAKRLVCWSQKSRK | inactive
28 | KNMWTGSFDVFRRWPISLKG | inactive
29 | KYMGAVFYIIHRTEERYF | 0.874 ± 0.13
30 | VVMFSTPDIVDILSHVYRLG | inactive
31 | RLWICVSQILVILVDALILG | inactive
32 | VKTINSWIRWVTLRILQVVS | inactive
33 | FTQYFLTRCDYYVEYYMLDR | inactive
34 | SWKARDYRGSVLGSIIRDFN | inactive
35 | GCINKDDYKSDCWSFYKTE | inactive
36 | RGSSTIYNETGLLGRLKGM | inactive
37 | RRSRCVRSVYRFRMSRARPP | inactive
38 | TIIFRSYVELVDELWLDAAL | inactive
39 | VWVVV | inactive
40 | RDIASQC | -0.698 ± 0.98
41 | CYADPG | inactive
42 | SLLKINGGVIHYFSCRMEDW | 0.684 ± 0.34
43 | RQVSPTVVCSIILSLPFDPC | 0.396 ± 0.22
44 | RGSCRLVNLEPCRIM | inactive
45 | SLETMFMEKKRTSPNMVMLW | -0.42 ± 0.73
46 | STTIGF | inactive
47 | AMVTVELSDNYFWNLHTVAS | inactive
48 | IVECFYTL | inactive

Row | Substance | amyloid nucleation score
49 | VCYYVFRTDIIIVIRVDAWL | inactive
50 | FVIVSL | 1.6 ± 0.069
51 | IAVCTRAMASNRLGFQYRNG | inactive
52 | PCQDWARYAPGLPLPMGLAL | -0.293 ± 0.89
53 | HPRELYTFKKSWFLGRDS | inactive
54 | WVWRSNSPGAEKWTLLTKTL | inactive
55 | FIGVKQTRKLNTFCLGSWLM | -0.061 ± 0.66
56 | VNYSLQVNFVFRWARFKLWL | inactive
57 | TYAYELRIFSDYSHGLGFDP | -0.659 ± 0.88
58 | LQYNISVWELC | inactive
59 | EGEVCSVCY | inactive
60 | ADNIGRFVYCYCSVLQTTIS | 0.401 ± 0.21
61 | VNYHFYKFYGPWRVWNRTRA | 1.95 ± 0.086
62 | SCMCYGTLLVLLYISYVMVE | inactive
63 | FVFMTDGGVLNVLAWCISEA | inactive
64 | CLGGQRHDVLPVCCWEFIME | inactive
65 | FCYLPRALCEVLNRCLLNSL | inactive
66 | FVCYNTFSSSACSLCNHLSH | 2.4 ± 0.053
67 | KDTRIQLVNNFICGDSLE | inactive
68 | SRNILRLKLIRLCSRKGIWW | inactive
69 | DLSVYYVLLFVCDGL | -1.35 ± 1.8
70 | ACLLVRYHTDDSNKRCSL | inactive
71 | CTYDSLRILAYRANQTNWFQ | -0.278 ± 0.47
72 | YRPFWSA | inactive

Row | Substance | amyloid nucleation score
73 | QLQSYRQGTFGDQYSPSVHS | inactive
74 | LCLFRTRVIGVS | inactive
75 | YAAEYYVVQVIG | inactive
76 | CPCGNVGVFLGLTRTVKGKS | inactive
77 | LLNPCKRSCVNLRMHTQPSS | inactive
78 | SWFPP | inactive
79 | YFLGRVRK | inactive
80 | CVVNSGFNLSCMIVSQSVSL | inactive
81 | VSTWGRDLVVTIAGR | inactive
82 | LMDFLKYAMFRGTMVCW | inactive
83 | GWKFMREYSKRIGSSSPVVY | inactive
84 | VDEAEKGVNHLERRGSYSRY | inactive
85 | CKCEQVFLGLNLRYKEHDAW | inactive
86 | SMQVQMTWLCDRSSLGQRNQ | 1.6 ± 0.11
87 | AKSPL | -0.681 ± 0.96
88 | AWGYYPSLCGKEDVYSWGWG | inactive
89 | STRILRLHITSMLDFRTTGA | inactive
90 | RCYNHFHSI | inactive
91 | LDKFHCRFYMQNSN | inactive
92 | MYSHLNTCTTAKPQVFCSKL | inactive
93 | PTELIACVAIYNVDYLYWIH | 2 ± 0.082
94 | RWLASNVDPKITSEIQPGAS | inactive
95 | KRDEVVKFLLDGVGASGYNA | inactive
96 | KTLYTDSS | 0.114 ± 0.58

Row | Substance | amyloid nucleation score
97 | IPLLQCNIERYISLFVLVVG | inactive
98 | AASEPGSKRLEAAQWVPVAS | inactive
99 | SRRSLNGIN | -0.05 ± 0.3
100 | RFILDVMRVAAGFMVSK | inactive
101 | MTGCHCSSVAR | -0.299 ± 0.68
102 | GGCCAYCSLDLVWMFDDRSV | 2.16 ± 0.081
103 | IVRPLLNFLCDLCRKVALGK | inactive
104 | TGSLWRNHCLVVPQVRYGRK | -0.017 ± 0.5
105 | VMSKIISTQLVDMR | inactive
106 | YWVRNVGYRRNSSSCTWSRG | inactive
107 | LKLTMSFMSQDLIIHVIDCS | inactive
108 | VPVRSSYMTEMYVCSGISPR | inactive
109 | TFRVNMCNPLMLGYVLFWLD | inactive
110 | VNNKIVVWTIMSSNDERLPS | 1.54 ± 0.082
111 | MSHCYYEFARVPKWHERCPS | inactive
112 | GYRSCCCEKLRSRSCGSSWA | inactive
113 | VVLMALVQVYFTSGGMFIKD | inactive
114 | WIHRMLSSGVDSPRNTSLWT | inactive
115 | FVHSLRVVIW | inactive
116 | SGLFWRTLEPLNSVDRFYG | inactive
117 | GFGFP | inactive
118 | WGRGLRPTLVGMFARAHRGA | inactive
119 | RSKLYEISRIRKMGHPHTAE | inactive
120 | IVVVFNPFGDELTYWVTQSM | inactive

Row | Substance | amyloid nucleation score
121 | VSFNP | -0.32 ± 0.6
122 | QLMYRE | inactive
123 | NSKYLLD | inactive
124 | FKRWLSSWFKLA | inactive
125 | TTRIVSNCCMLIVL | 1.29 ± 0.12
126 | LSKHS | inactive
127 | CLMKIWLTVEGTSHRALGFR | inactive
128 | TNPMYK | inactive
129 | SKHYN | inactive
130 | KRASMPVPGSSWLHQFKE | inactive
131 | LSGRVERVW | inactive
132 | ASENLAEVLIVT | inactive
133 | SPGYINGNGSSVRSVFNL | inactive
134 | FILLGRNGLG | inactive
135 | RSGSMWCLSMLVVHLDELTD | inactive
136 | GRYFSRNYAMCLLLFTTGEV | inactive
137 | YIFQICRFGIYYVRSVYTTY | inactive
138 | GHIYCYSVKE | inactive
139 | SMATDAWGTTKF | inactive
140 | VMGVPST | inactive
141 | ILRFFIT | inactive
142 | RFLFNKRL | -0.029 ± 0.81
143 | YICTNNLTYNSMMQIFSKIM | 0.394 ± 0.33
144 | WWKSLLTRWRCLPPRK | -0.307 ± 0.62

Row | Substance | amyloid nucleation score
145 | DAIIVSIAYILG | inactive
146 | CWRVYYLNVWVEVES | inactive
147 | YSGLGSIVTNGYSYIYGEVL | inactive
148 | AISGIPESIVMLSYFRL | inactive
149 | QVLRSYHYGCYSGCGALHMR | inactive
150 | AITHL | inactive
151 | RAWVLHCGNGYWYPLGQ | inactive
152 | KVGAGIDIISFIRNLILALP | inactive
153 | IKTRAKLLYFQLVVLTNFLP | inactive
154 | LGPMAGRVSRYCNAARLTRC | -0.999 ± 2.4
155 | SSQVET | inactive
156 | TVIFWWLKGNRPVSMIDSDI | inactive
157 | FGMGKRLSNENMPLVSCTGL | inactive
158 | IAEGFNTVGDLWNIGCCDSG | 0.154 ± 0.33
159 | EIKYTDL | inactive
160 | ISRVCSNFLGLDVTFLMLLT | 1.42 ± 0.14
161 | DWRMAYVSVC | inactive
162 | PSLCFSAVQLRLPRDVFLKY | inactive
